Measurements: article PMC6448596 (Cell reports, 2019)

Target: His-SUMO-WDR5(22–334) (human, UniProt P61964 22-334)
Test: AlphaScreen or HTRF

ARTEVHLRKS [10-mer-Thr-FAM (ARTEVHLRKS-(Ahx-Ahx)(Lys-(5-FAM)))]
binding result: binds
